These are literature values, as cited in patent US6844322B2, “Method for induced lactation” (Monsanto Technology LLC, priority 2000, dated 2005).

The series relates to cows. The conditions noted are these: somatotropin included in the induction protocol (Kensinger et al., 1998).

B1: POSILAC® somatotropin: Sustained-release bovine somatotropin, Monsanto (protein, UniProt P01246 27-217, looked up)
Somatotropin: AFPAMSLSGLFANAVLRAQHLHQLAADTFKEFERTYIPEGQRYSIQNTQVAFCFSETIPAPTGKNEAQQKSDLELLRISLLLIQSWLGPLQFLSRVFTNSLVFGTSDRVYEKLKDLEEGILALMRELEDGTPRAGQILKQTYDKFDTNMRSDDALLKNYGLLSCFRKDLHKTETYLRVMKCRRFGEASCAF
modifications: sustained-release formulation
notes: Sustained-release bovine somatotropin, Monsanto
Regarding B1, the “increase in milk yield compared to cows treated with steroids alone” value is on record as 17%.
